{
  "source": "patent US20070049521A1",
  "about": "(ENOBIA PHARMA, published 2007)",
  "binders": {"B1": {"name": "PLAP-Ostn fusion protein (N-terminal secreted placental alkaline phosphatase moiety linked to mouse Ostn[29-130]) (other)", "chain": "DAAQPARRARRTYEAYVRSSGIIPVEEENPDFWNREAAEALGAAKKLQPAQTAAKNLIIFLGDGMGVSTVTAARILKGQKKDKLGPEIPLAMDRFPYVALSKTYNVDKHVPDSGATATAYLCGVKGNFQTIGLSAAARFNQCNTTRGNEVISVMNRAKKAGKSVGVVTTTRVQHASPAGTYAHTVNRNWYSDADVPASARQEGCQDIATQLISNMDIDVILGGGRKYMFPMGTPDPEYPDDYSQGGTRLDGKNLVQEWLAKRQGARYVWNRTELMQASLDPSVTHLMGLFEPGDMKYEIHRDSTLDPSLMEMTEAALRLLSRNPRGFFLFVEGGRIDHGHHESRAYRALTETIMFDDAIERAGQLTSEEDTLSLVTADHSHVFSFGGYPLRGSSIFGLAPGKARDRKAYTVLLYGNGPGYVLKDGARPDVTESESGSPEYRQQSAVPLDEETHAGEDVAVFARGPQAHLVHGVQEQTFIAHVMAFAACLEPYTACDLAPPAGTTDAAHPGYLDLASQEFGTASLQSPPTAREEKSATELSAKLLRLDDLVSLENDVFETKKKRSFSGFGSPLDRLSAGSVEHRGKQRKAVDHSKKRFGIPMDRIGRNRLSSSRG", "notes": "Used as conditioned medium of transfected HEK293 cells; also called PLAP-mOstn"}, "B2": {"name": "human Ostn[83-133] (cold) (peptide)", "peptide": "SFSGFGSPLDRLSAGSVDHKGKQRKVVDHPKRRFGIPMDRIGRNRLSNSRG", "notes": "Bought from Phoenix Pharmaceutical co"}},
  "key": {"[1]": {"molecular_target": "T1, human NPR-C (natriuretic peptide receptor C, clearance receptor), overexpressed on HEK293 cells (human, UniProt P17342 27-541)", "T1 construct": "whole, on cells; also called natriuretic clearance receptor", "T1 sequence (looked up)": "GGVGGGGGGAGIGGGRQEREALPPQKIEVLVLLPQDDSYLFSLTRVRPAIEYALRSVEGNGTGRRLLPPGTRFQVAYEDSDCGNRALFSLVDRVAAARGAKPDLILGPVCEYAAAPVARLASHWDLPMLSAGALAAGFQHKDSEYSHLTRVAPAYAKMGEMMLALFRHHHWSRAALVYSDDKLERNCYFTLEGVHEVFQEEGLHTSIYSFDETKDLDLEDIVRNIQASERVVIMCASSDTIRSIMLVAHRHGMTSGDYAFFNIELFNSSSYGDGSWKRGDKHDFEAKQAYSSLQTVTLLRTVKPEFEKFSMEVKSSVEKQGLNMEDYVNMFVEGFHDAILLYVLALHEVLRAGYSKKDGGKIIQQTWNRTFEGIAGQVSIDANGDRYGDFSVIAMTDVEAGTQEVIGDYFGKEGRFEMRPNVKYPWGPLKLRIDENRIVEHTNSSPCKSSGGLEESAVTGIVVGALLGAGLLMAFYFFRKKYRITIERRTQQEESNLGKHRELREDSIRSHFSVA", "assay": "PLAP activity bound to NPR-C-transfected HEK293 cells, saturation binding", "source_text": "(§1) To analyze the potential binding of Ostn to natriuretic receptors, a fusion protein (PLAP-Ostn) (FIG. 6) was generated as described above. This fusion protein comprised an N-terminal secreted placental alkaline phosphatase (PLAP) moiety linked to mature mouse Ostn (residues 29-130) (SEQ ID NO: 62). Conditioned media containing PLAP-mOstn was used to assess Ostn binding on transiently transfected cells."}, "[2]": {"molecular_target": "T2, rat GC-A, overexpressed on HEK293 cells (rat, UniProt P18910 29-1057)", "T2 construct": "whole, on cells", "T2 sequence (looked up)": "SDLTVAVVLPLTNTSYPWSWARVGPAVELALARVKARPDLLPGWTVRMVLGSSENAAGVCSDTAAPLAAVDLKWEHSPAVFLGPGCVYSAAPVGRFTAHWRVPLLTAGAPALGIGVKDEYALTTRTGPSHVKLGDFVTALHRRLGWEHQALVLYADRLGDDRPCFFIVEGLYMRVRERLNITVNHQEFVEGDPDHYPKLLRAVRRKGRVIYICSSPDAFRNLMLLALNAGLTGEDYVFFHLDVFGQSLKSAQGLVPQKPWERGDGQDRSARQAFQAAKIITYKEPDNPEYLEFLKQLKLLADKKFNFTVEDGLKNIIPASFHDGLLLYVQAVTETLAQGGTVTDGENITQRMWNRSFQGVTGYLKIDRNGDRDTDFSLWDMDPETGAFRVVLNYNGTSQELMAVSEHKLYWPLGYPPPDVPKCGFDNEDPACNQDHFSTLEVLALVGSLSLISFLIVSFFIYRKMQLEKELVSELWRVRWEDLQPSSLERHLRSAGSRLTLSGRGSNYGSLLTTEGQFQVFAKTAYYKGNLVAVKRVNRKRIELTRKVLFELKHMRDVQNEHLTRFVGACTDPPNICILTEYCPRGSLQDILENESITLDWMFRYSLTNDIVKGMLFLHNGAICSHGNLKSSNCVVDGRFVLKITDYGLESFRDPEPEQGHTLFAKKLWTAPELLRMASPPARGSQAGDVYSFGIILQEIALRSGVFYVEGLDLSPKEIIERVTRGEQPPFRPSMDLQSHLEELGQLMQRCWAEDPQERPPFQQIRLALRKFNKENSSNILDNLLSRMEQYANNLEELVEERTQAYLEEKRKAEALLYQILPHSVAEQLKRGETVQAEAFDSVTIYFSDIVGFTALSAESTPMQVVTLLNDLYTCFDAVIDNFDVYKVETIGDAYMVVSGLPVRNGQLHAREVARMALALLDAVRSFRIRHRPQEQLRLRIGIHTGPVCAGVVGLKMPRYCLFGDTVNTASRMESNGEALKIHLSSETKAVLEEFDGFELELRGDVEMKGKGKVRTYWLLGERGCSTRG", "assay": "PLAP activity bound to transiently transfected HEK293 cells", "source_text": "as §1"}, "[3]": {"molecular_target": "T3, human GC-B, overexpressed on HEK293 cells (human, UniProt P20594 23-1047)", "T3 construct": "whole, on cells", "T3 sequence (looked up)": "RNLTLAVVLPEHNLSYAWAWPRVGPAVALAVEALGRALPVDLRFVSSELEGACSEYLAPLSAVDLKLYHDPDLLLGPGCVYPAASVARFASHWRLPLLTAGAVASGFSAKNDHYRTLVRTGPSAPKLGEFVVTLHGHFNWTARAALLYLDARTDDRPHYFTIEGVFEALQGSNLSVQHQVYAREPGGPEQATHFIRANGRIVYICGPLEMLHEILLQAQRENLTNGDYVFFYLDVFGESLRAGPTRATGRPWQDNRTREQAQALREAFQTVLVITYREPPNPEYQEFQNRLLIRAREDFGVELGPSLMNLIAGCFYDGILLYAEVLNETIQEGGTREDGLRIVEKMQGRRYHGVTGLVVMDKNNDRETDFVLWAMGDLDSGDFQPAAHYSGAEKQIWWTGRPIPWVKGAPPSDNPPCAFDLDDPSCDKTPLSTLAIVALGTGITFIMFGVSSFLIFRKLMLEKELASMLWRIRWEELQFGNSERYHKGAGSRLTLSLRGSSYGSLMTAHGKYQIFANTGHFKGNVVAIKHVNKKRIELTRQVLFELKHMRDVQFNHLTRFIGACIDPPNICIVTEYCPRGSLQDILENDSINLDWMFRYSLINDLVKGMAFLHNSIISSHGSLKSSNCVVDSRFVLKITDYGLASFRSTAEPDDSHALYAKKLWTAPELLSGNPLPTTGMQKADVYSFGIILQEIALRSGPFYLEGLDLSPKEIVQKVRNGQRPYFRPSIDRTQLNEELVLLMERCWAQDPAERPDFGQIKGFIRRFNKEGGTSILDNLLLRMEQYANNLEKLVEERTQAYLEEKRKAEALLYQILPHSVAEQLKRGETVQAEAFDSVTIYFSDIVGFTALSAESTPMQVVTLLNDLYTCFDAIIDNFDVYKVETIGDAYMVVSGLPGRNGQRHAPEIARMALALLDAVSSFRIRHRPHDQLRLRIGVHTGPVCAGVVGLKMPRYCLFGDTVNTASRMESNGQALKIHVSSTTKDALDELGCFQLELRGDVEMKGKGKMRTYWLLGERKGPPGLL", "assay": "PLAP activity bound to transiently transfected HEK293 cells", "source_text": "as §1"}, "[4]": {"molecular_target": "T1, human NPR-C (natriuretic peptide …)", "assay": "cell-based or functional assay"}, "[5]": {"molecular_target": "T1, human NPR-C (natriuretic peptide …)", "assay": "competition of ~30 nM PLAP-Ostn binding on NPR-C-transfected HEK293 cells", "protocol": "To further validate the specificity and affinity of Ostn-NPR-C binding, competition experiments were conducted in NPR-C over-expressing cells. […] (SEQ ID NO: 71) lacking a part of NM2. […] (SEQ ID NO: 66) or Ostn[117-130] (SEQ ID NO: 71). […] (SEQ ID NO: 66) was able to compete off 50% of the binding of PLAP-mOstn in the ˜1-10 nM range, in contrast to Ostn[117-130] (SEQ ID NO: 71) that was unable to efficiently compete up to 100 nM (FIG. 7B)."}, "[6]": {"molecular_target": "T4, endogenous GC-A of HEK293 cells (human, UniProt P16066 33-1061)", "T4 sequence (looked up)": "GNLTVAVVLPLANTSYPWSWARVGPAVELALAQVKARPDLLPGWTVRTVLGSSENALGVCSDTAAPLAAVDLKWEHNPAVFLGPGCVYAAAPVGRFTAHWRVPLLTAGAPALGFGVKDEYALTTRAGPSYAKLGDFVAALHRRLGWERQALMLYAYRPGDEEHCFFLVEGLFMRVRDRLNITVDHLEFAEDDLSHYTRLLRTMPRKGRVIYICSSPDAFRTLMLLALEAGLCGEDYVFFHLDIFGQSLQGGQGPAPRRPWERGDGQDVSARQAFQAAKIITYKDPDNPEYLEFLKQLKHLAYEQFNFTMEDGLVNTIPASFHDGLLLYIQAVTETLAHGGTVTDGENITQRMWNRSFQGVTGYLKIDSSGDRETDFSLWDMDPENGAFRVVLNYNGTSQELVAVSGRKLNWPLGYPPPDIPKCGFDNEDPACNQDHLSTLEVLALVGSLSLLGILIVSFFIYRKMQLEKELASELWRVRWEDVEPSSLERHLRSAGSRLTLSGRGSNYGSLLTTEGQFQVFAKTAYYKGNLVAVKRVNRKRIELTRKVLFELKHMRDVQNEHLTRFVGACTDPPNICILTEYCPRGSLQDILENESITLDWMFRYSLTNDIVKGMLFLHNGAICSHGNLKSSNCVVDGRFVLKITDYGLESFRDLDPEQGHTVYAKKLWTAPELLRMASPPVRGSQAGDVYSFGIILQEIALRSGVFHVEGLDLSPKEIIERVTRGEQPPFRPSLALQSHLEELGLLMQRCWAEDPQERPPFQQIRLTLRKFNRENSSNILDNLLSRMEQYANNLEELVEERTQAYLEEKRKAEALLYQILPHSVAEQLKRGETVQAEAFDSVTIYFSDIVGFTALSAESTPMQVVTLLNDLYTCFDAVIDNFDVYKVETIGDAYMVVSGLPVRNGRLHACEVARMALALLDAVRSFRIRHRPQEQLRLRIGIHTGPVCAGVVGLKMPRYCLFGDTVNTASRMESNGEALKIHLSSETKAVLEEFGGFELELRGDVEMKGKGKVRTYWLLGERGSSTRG", "assay": "cell-based or functional assay"}, "[7]": {"molecular_target": "T5, NPR-C on ATDC5 cells (mouse chondrogenic cell line) (mouse, UniProt P70180 41-536)", "T5 construct": "whole, on cells; also called ATDC5 cells surface", "T5 sequence (looked up)": "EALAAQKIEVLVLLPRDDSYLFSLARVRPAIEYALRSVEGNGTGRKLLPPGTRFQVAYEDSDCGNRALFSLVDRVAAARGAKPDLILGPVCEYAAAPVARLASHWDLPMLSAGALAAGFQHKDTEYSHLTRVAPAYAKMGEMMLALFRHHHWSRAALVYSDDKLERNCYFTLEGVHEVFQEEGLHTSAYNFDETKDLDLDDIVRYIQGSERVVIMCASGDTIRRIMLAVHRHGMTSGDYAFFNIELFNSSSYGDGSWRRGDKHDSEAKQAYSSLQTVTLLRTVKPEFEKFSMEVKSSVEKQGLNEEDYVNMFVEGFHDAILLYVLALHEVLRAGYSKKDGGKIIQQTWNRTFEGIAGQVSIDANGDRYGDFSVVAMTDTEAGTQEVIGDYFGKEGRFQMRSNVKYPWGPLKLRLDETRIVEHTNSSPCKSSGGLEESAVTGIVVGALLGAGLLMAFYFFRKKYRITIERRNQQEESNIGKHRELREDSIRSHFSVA", "assay": "displacement of 125I-Ostn[83-133] from ATDC5 cells", "protocol": "(SEQ ID NO: 41) for 90 min at 4° C. After incubation, cells were washed twice with ice-cold PBS and solubilized with 0.5-ml of 0.5 M NaOH.\nThe radioactivity was measured with gamma-counter (Wallac). […] (SEQ ID NO: 41) and the IC₅₀ calculated was 4.7 nM. […] (SEQ ID NO: 41) (FIG. 12b)."}},
  "note": "No end group written: not given here.",
  "data": [
    {"binder": "B1", "values": [
      {"measurement": "EC50", "setting": "[1]", "value": "~30", "unit": "nM"},
      {"measurement": "binding result", "setting": "[2]", "value": "no binding"},
      {"measurement": "binding result", "setting": "[3]", "value": "no binding"}
    ]},
    {"binder": "YDHSKKRFGIPMDRIGRNRLSNSR-NH2", "note": "[mouse amidated Ostn[107-129] synthetic C-terminal peptide]", "values": [
      {"measurement": "cGMP levels of NPR-C-expressing HEK293 cells with 0.1 nM ANP and 10 nM Ostn[107-129]", "setting": "[4]", "value": 4, "unit": "fold"},
      {"measurement": "IC50", "setting": "[5]", "value": "1 to 10", "unit": "nM"}
    ]},
    {"binder": "SLRRSSCFGGRIDRIGAQSGLGCNSFRY (ligand, ends and bridges not checked; cysteine pairing not given here)", "note": "[Rat ANP (1-28)]", "values": [
      {"measurement": "increase in cGMP levels upon stimulation of NPR-C-overexpressing HEK293 cells with 0.1 nM ANP[1-28]", "setting": "[4]", "value": 1.5, "unit": "fold"},
      {"measurement": "increase in cGMP levels upon ANP stimulation of GFP-transfected HEK293 cells", "setting": "[6]", "value": 9, "unit": "fold"}
    ]},
    {"binder": "B2", "values": [
      {"measurement": "IC50", "setting": "[7]", "value": 4.7, "unit": "nM"}
    ]}
  ]
}
